Assay [1] concerns the target T1, recombinant human HER2 extracellular domain protein (human, UniProt P04626 23-652). As to the kind of experiment: BIAcore (SPR), format not stated.
Assay [2] has as its target T1, recombinant human HER2 extracellular …. Briefly: BIAcore KD of 39S against the reported KD of 1.39.1. Background: Surface plasmon resonance follows binding to a sensor surface in real time, without labels.
Assay [3] deals with T2, human EGFR recombinant extracellular domain protein (human, UniProt P00533 25-645).
T2 construct: extracellular domain
As to the kind of experiment: capture ELISA on coated recombinant extracellular domain protein. As for the experimental part: (§1) Antibody to be tested was prepared by diluting in a stepwise 1:3 serial dilution ranging from 50 nM down to 0.28 pM and then added to the wells in duplicate. After one hour of incubation, plates were washed, and goat anti-human IgG Fab HRP-conjugated secondary antibody was added to each well and the plates were incubated for 1 hour. The plates were washed and TMB substrate was added and incubated for 5-20 min to allow color development. The stop solution was added to the wells at the end of reaction and the plates were read at 450 nm. Binding signal (absorbance at 450 nm) was plotted against antibody concentration using Prism software.
A general note: ELISA stands for enzyme-linked immunosorbent assay.

Assay [4] concerns the target T3, human HER3 recombinant extracellular domain protein (human, UniProt P21860 20-643).
T3 construct: extracellular domain
The description is as above. How it is done: as §1

Assay [5] concerns the target T4, human HER4 recombinant extracellular domain protein (human, UniProt Q15303 26-651).
T4 construct: extracellular domain
T4 sequence (looked up): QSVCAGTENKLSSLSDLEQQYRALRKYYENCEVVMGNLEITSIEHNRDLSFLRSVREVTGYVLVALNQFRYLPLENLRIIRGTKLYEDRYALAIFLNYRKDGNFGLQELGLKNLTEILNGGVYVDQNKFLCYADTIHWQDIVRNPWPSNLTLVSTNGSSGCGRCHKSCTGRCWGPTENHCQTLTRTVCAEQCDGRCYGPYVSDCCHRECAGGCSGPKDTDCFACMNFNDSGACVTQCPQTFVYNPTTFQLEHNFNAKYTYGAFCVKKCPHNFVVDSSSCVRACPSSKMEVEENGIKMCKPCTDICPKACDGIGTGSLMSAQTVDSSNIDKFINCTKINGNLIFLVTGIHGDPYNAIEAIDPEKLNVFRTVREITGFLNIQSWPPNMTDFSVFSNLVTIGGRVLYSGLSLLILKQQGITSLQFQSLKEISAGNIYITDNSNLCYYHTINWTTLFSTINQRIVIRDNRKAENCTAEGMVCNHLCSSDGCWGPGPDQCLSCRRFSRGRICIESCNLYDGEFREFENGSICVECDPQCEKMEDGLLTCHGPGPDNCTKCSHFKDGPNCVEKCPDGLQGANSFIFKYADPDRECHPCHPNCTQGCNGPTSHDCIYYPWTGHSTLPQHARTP
The assay is described as above. How it is done: as §1

The next assay deals with T5, KO_146-208 (human; mouse, UniProt P70424 169-231).
T5 construct: domain: counterpart of human amino acids 146-208
As to the kind of experiment: SPR (ProteOn XPR36), variant captured by anti-Her2 polyclonal antibody, 39S injected. How it is done: (§2) The chimeric variant nomenclature denotes types of variants (KO/KI) and the number of domains swapped. […] The expression of the variants was monitored by anti-His polyclonal antibody using ProteOn™.
(§3) Standard amine coupling was used to immobilize an anti-human or mouse Her2 polyclonal antibody (R&D System) in 10 mM sodium acetate (pH 5.0) to the surface of a GLC biosensor chip at ˜5000 resonance units (RU) for each channel. The chimeric proteins in cell culture supernatant were injected and captured by anti-human or mouse polyclonal antibodies onto the GLC surface with a ˜200 RU response. […] The surface was regenerated twice by injecting glycine buffer (10 mM, pH 1.5) at 100 μL/min for 30 sec. All sensorgram data were processed with the ProteOn™ Manager 3.0.1 software.

The target of a further assay is T6, KO_192-208 (human; mouse, UniProt P70424 215-231).
T6 construct: domain: counterpart of human amino acids 192-208
Described as above. As for the experimental part: as §2, §3

In another assay the target is T7, KO_159-162 (human; mouse, UniProt P70424 182-185).
T7 construct: domain: counterpart of human amino acids 159-162
As to the kind of experiment: SPR (ProteOn XPR36), variant captured by anti-Her2 polyclonal antibody, 39S injected; apparent affinity. How it is done: as §2, §3

Another assay deals with KO_171-187 (human; mouse, UniProt P70424 194-210). The assay is described as above. As for the experimental part:
as §2, §3

The target of another assay is T8, KO_250-261 (human; mouse, UniProt P70424 273-284).
T8 construct: domain: counterpart of human amino acids 250-261
The description is as above. As for the experimental part:
as §2, §3

In the next assay the target is T9, KO_276-285 (human; mouse, UniProt P70424 299-308).
T9 construct: domain: counterpart of human amino acids 276-285
Described as above. As for the experimental part: as §2, §3

Another assay deals with T10, KO_295-296 (human; mouse, UniProt P70424 318-319).
T10 construct: domain: counterpart of human amino acids 295-296
Described as above. How it is done:
as §2, §3

Assay [6] addresses Human Her2 (control of Table 4) (human, UniProt P04626 23-652). Briefly: SPR (ProteOn XPR36), human Her2 captured by anti-Her2 polyclonal antibody, 39S injected; apparent affinity. How it is done:
as §2, §3

The target of the next assay is T11, human HER2 on cells (human, UniProt P04626 23-1255).
T11 construct: whole, on cells; also called HER2 on BT-474 cells; HER2 on T47D cells
Briefly: FACS competition on BT-474 cells; competitor: fluorescently labelled 39S at 2 µg/mL; unlabelled antibody titrated. How it is done: BT-474 cells were harvested, resuspended in FACS buffer, and 2.5×10⁵ cells/well were added to a 96-well U-bottom plate. […] After 1 hour of staining on ice, cells were washed 3 times with ice-cold FACS buffer and then fixed with 2% PFA. Cells were analyzed by a BD LSR II machine with BD FACSDiva™ software. Data were analyzed with FlowJo software and presented as mean MFI±SEM (n=3).

The target of assay [7] is T12, mouse Her2 recombinant extracellular domain protein (mouse, UniProt P70424 23-653).
T12 construct: extracellular domain
As to the kind of experiment: capture ELISA on coated recombinant extracellular domain protein. How it is done:
as §1

Numbering of substitutions follows the chain as printed.

B1: 39S antibody (antibody, V domains shown)
VH: EVQLVESGGGLVKPGGSLRLSCAASGFTFSSYSMSWVRQAPGKGLEWVSSISSSSSYIYYADSVKGRFTISRDNAKNSLYLQMNSLRAEDTAVYYCARGGDAYNYYYFDYWGQGTLVTVSS
VL: DIVMTQTPLSLSVTPGQPASISCKSSQSVFFRSNNKNILAWYLQKPGQPPQLLIYWASSRESGVPDRFSGSGSGTDFTLKISRVEAEDVGVYYCQQYFGSPFTFGPGTKVDIK
notes: also called lead optimized 39S antibody (LO); anti-HER2 mAb 39S
Consider B1, for which the Kd was ~1 nM in assay [1]; 0.101 nM with KO_159-162; 0.038 nM in the assay with KO_171-187; 0.187 nM with KO_250-261; 0.106 nM in the assay with KO_276-285; 0.0847 nM with KO_295-296. In addition, the Kd in assay [6] was 0.084 nM. In addition, the “fold increase in binding affinity over the parental antibody (1.39.1)” value in assay [2] was 2 fold. Also, the binding result is “no binding (tested: 50 nM (highest concentration tested))” in assay [3]; “no binding (tested: 50 nM (highest concentration tested))” in assay [4]; “no binding (tested: 50 nM (highest concentration tested))” in [5]; “no binding” in the assay with KO_146-208; “no binding” with KO_192-208. In the assay with human HER2 on cells, the “IC50 (read off the curve)” value is ~3 µg/mL.

B2: AZ1.39.1 (antibody, V domains shown)
VH: B1 VH with S35N, A102G
VL: DIVMTQSPDSLAVSLGERATITCKSSQSVFFRSNNKNCLAWYQQRPGQPPNLLIYWASSRESGVPDRFSGSGSGTDFALTISSLQTEDVAVYYCQQYFGSPFTFGPGTKVDIK
As to B2, the binding result in assay [7], in assay [3], in assay [4] and in assay [5] was “no binding” in each case. The “IC50 (read off the curve)” value with human HER2 on cells is ~5 µg/mL.

These data come from patent US20170291955A1 (AstraZeneca / MedImmune, published 2017).
